Assay results from patent US20260009804A1 (GEORGIA TECH RESEARCH, published 2026).

Legend:
[1] = target: T1, full-length endogenous human myocilin from spent medium of human trabecular meshwork (hTM) cells (human, UniProt Q99972 33-504); assay: immunoprecipitation from spent hTM medium
T1 construct: Secreted protein; It was heparin-enriched for dot blots and used directly from spent medium for immunoprecipitation; also called full-length myocilin; hTM-secreted myocilin
T1 sequence: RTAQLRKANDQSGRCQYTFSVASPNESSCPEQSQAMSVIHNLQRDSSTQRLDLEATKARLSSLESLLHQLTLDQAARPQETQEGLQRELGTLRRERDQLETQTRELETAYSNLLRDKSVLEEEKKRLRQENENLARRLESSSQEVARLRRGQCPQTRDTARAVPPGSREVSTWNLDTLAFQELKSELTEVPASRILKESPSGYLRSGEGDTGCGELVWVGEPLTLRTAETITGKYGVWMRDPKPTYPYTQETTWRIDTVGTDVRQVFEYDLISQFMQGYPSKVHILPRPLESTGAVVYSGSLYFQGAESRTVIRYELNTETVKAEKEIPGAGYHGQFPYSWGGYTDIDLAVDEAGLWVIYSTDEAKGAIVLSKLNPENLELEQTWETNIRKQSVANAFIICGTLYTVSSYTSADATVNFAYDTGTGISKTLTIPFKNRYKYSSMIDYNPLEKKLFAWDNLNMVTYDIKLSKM
Experimental: Immunoprecipitation: Antibodies in IgG format (0.5 ng/ml) were incubated with 10 mL spent hTM medium (experiment) or 10 mL buffer control (50 mM HEPES pH 7.5, 200 mM NaCl, 10% glycerol) overnight at 4° C. on a rocker. Subsequently, Pierce™ Protein A/G Plus agarose suspension (50 μL, ThermoFisher Scientific®) was added, and samples were rocked an additional 2 hours at room temperature. Resin was pelleted by centrifugation (10 minutes at 1,000× g), washed at least 5 times with 500 uL buffer. Bound proteins were eluted by adding 50 μL 2× Laemmli buffer, incubated for 10 minutes at room temperature, followed by pelleting and removing the supernatant. Samples were supplemented to 3% v/v β-mercaptoethanol and heated 10 minutes at 95° C. prior to SDS-PAGE and Western blot analysis.

[2] = target: T2, mLZ (mouse myocilin leucine zipper, residues 93-171) (mouse, UniProt O70624 93-171); assay: summary of ELISA and dot blot
T2 construct: Arose when Factor Xa cleaved mCCLZ after TLGR92; also called mouse leucine zipper; mouse LZ
T2 sequence: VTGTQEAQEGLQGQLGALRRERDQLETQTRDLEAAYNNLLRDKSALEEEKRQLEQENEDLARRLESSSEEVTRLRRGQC

[3] = target: T3, hNTD (human myocilin N-terminal domain, residues 33-226) (human, UniProt Q99972 33-226); assay: dot blot, purified construct
T3 construct: also called longer hNTD construct
T3 sequence: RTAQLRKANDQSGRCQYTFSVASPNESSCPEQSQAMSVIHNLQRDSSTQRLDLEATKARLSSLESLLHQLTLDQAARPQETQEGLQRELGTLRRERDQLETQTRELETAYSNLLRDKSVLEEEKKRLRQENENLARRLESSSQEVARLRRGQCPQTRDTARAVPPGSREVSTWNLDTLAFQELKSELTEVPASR
Experimental: (§1) Dot Blots and Western Blots: Dot and western blots were conducted using protocols previously described in detail (Patterson-Orazem, et al., Exp Eye Res, 173:109-112 (2018)). Briefly, protein samples were immobilized on methanol-activated polyvinylidene difluoride membranes (Millipore®) by electrophoresis for Western blots and by direct deposition of 2 μL sample per dot for dot blots. Membranes were blocked overnight in 2% milk in PBS supplemented with 0.5% TWEEN-20, then probed with primary antibodies. Custom scAbs were tested at 1 μg/mL; IgGs were tested at 0.5 μg/mL to account for bivalency. Protein expression in cell lysates was confirmed using 1:1000 mouse anti-His antibody (RRID: AB_2533947). […] Custom scAbs were detected with 1:2000 (whole cell lysate dot blots) or 1:5000 (all other experiments) dilution of HRP-conjugated goat anti-human κ light chain secondary antibody (RRID: AB_619883). Binding of control antibodies and custom IgGs was detected using 1:2000 (whole cell lysate dot blots) or 1:5000 (all other experiments) dilution of HRP-conjugated goat anti-mouse IgG (H+L) secondary antibody (RRID: AB_2533947).
(§2) Conformational specificity was assessed by comparing results from dot blots (FIGS. 4A-4D) and Western blots (FIG. 4E-4H), experiments were conducted in parallel with specific quantities of purified myocilin constructs. […]

[4] = target: T4, hCCLZ (human myocilin coiled-coil/leucine zipper, residues 69-185) (human, UniProt Q99972 69-185); assay: dot blot, purified construct
T4 construct: Made in E. coli (pET-30 XaLIC); Tags were cleaved for immunization and panning; the tagged form was used in cell-lysate dot blots; also called human coiled-coil/leucine zipper
T4 sequence: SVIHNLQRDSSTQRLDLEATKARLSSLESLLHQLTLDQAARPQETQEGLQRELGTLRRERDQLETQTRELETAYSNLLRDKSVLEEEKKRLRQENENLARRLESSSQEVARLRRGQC
Experimental: as §1, §2

- binding result [1]: binds
- binding result [2]: binds
- binding result [3]: binds
- binding result [4]: binds
B1: 2A4 IgG (monoclonal antibody 2A4) (antibody, V domains shown)
VH: EVQLQQSGAELMRSGASVKLSCTASGFNIKDYYMHWVKQRPEQGLEWIGWIDPENGDTEYAPKFQGKATMTADTSSNTAYLQLSSLTSEDTAVYYCNPFVYWGQGTLVTVSA
VL: DIVMTQSQKFMSTSVGDRVSVTCKASQNVGTNVAWYQQKPGQSPKALIYSASYRYSGVPDRFTGSGSGTDFTLTISNVQSEDLAEYSCQQYNSYPYTFGGGTKLEIKR
notes: Full length chimeric human IgG1 with kappa light chain (IgG-Abvec and IgK-Abvec vectors), produced in CHO-K1 cells
